Reference: patent publication US20190077836A1 (PANASONIC INTELLECTUAL PROPERTY MANAGEMENT, published 2019)

B1: VHH antibody including the amino acid sequence represented by SEQ ID NO: 8 (VHH)
VHH: QVQLVESGGGLVQTGGPLRLSCAVSDRTDSNYAMGWFRQAPGKEREFVAAISGTGYVTGYADSARNRFTLSRDNGKNAVYLQMNSLEPADTAVYYCAATSDQRYPGPRSSGYDYWGQGTQVTVSS
B2: monoclonal phage displaying the VHH antibody (DNA SEQ ID NO: 18, amino acid sequence SEQ ID NO: 8) (VHH)
VHH: QVQLVESGGGLVQTGGPLRLSCAVSDRTDSNYAMGWFRQAPGKEREFVAAISGTGYVTGYADSARNRFTLSRDNGKNAVYLQMNSLEPADTAVYYCAATSDQRYPGPRSSGYDYWGQGTQVTVSS

Legend:
[1] = target: recombinant nucleoprotein (NP) protein derived from influenza virus H1N1 to which a Flag tag was fus (influenza virus H1N1)
[2] = target: T1, recombinant intranuclear protein (SEQ ID NO: 24) derived from a type-A influenza virus H1N1 (A/Puerto … (type-A influenza virus H1N1 (A/Puerto …, UniProt P03466 1-498))); assay: phage ELISA on immobilised NP, anti-M13 antibody detection, absorbance at 450 nm
T1 construct: also called NP; NP antigen
T1 sequence (P03466 whole entry): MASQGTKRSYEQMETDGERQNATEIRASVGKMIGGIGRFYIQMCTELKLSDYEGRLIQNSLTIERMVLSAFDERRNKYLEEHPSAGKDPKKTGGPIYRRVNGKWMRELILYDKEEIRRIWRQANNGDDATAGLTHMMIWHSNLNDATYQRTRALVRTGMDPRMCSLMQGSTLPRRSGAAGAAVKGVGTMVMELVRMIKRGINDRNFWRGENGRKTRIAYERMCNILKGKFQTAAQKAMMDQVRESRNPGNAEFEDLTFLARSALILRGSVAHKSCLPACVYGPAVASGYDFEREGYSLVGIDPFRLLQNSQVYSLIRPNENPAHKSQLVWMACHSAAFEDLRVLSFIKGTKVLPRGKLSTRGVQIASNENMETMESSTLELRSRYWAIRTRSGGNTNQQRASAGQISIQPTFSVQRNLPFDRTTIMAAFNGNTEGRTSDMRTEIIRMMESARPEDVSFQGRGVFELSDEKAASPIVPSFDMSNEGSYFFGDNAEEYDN

Sequence of recombinant nucleoprotein (NP) protein derived from influenza virus H1N1 to which a Flag tag was fus (influenza virus H1N1) (P03466 whole entry): as above

Binder | Kd [1] [nM] | binding result [2]
B1 | 0.199 | –
B2 | – | binds
